From US20240299464A1, “BOTANICAL COMPOUNDS, METHODS, AND PROCEDURES FOR MEDICINAL TREATMENT RELATED TO IMMUNOINFLAMMATION, NEUROINFLAMMATION, DEPRESSION, MEMORY, FOCUS, AND NERVE DEGENERATION” (priority 2023, published 2024)
Marks after values point to notes of the source that are not given here.

Legend:
mice = assay: Forced swimming test (FST), anti-anxiety and stress effects; type: in vivo
Procedure: The anti-anxiety and stress effects of the Ziptamin product were investigated in mice using the forced swim test as reported in Porsolt, et al. (5). Healthy female mice, after acclimatization, were randomly divided into 4 groups, each group consisting of 6 mice, specifically: • Group 1 (Disease control): Mice were administered distilled water; • Group 2 (Control): Mice were administered fluoxetine at a dose of 6.5 mg/kg; • Group 3 (Test sample): Mice were administered Ziptamin at a dose of 25 ml/kg, divided into 2 doses/day 4 hours apart; • Group 4 (Test sample): Mice were administered Ziptamin at a dose of 50 ml/kg, divided into 2 doses/day 4 hours apart.
Mice were administered distilled water or fluoxetine at a volume of 10 ml/kg once a day or Ziptamin at doses of 25 ml/kg and 50 ml/kg for 7 consecutive days, divided into 2 doses/day, with a 4-hour interval between doses. On day 7, 60 minutes after administering distilled water, fluoxetine, or Ziptamin, mice were placed in a cylindrical glass tube (diameter 20 cm, height 50 cm) containing water at a temperature of 23-25° C. and a depth of 20 cm for 6 minutes. Initially, the mice struggled to escape the water, but then gradually adapted and performed only the necessary movements to keep their heads above water (immobility state). Filming lasted for 6 minutes, including 1 minute for the mice to stabilize and adapt, and the remaining 5 minutes to record the movements and behavior of the mice in the water, including swimming time (mice moving their limbs in the water as if rowing in the center of the cylinder), struggling (front limbs moving quickly and strongly in or above the water, with a tendency to swim and hit the front limbs against the walls of the cylinder), and immobility (ceasing to struggle, only performing necessary movements to keep the head afloat) (FIG. 1). The test sample reduced anxiety and stress, decreasing immobility time and increasing swimming and struggling time in the test mice. After 6 minutes, the mice were removed from the water and dried to prevent hypothermia. Results are presented as mean values±SEM (standard error of the mean). Differences between groups were analyzed using the Kruskal-Wallis test and Mann-Whitney test with SPSS 26.0 software. A statistical significance is considered when the p-value is <0.05.

[1] = tested on: mice with immunosuppression induced by cyclophosphamide; assay: Immune stimulatory effects on mice with immunosuppression induced by cyclophosphamide; type: in vivo; conditions: for Body weight: CYP 150 mg/kg i.p. day 1
Procedure: The adult human dosage of Ziptamin is 0.5-1 bottle/day×250 ml/bottle A normal adult weighs about 60 kg→Mouse dose of Ziptamin: Dmouse=(0.5*250*11.76)/60=25 ml/kg and Dmouse=(1*250*11.76)/60=50 ml/kg. The dose conversion factor from adults to mice is 11.76 according to the Guidelines for preclinical and clinical testing of traditional medicine, herbal medicine issued by the Department of Science, Technology and Training-Ministry of Health under Decision No. 141/QD-K2DT dated 27 Oct. 2015.
Healthy male mice, after stable housing, were randomly divided into 5 groups, each with 8 mice: • Group 1 (Physiological): Mice were given distilled water; • Group 2 (Disease control): Mice were given distilled water; • Group 3 (Control): Mice were injected […] with filgrastim at a dose of 50 μg/kg; • Group 4 (Test group): Mice were given Ziptamin at a dose of 25 ml/kg, divided into 2 doses/day 4 hours apart; • Group 5 (Test group): Mice were given Ziptamin at a dose of 50 ml/kg, divided into 2 doses/day 4 hours apart; • Group 1 (physiological) were injected intraperitoneally with 0.9% NaCl, volume 10 ml/kg. Mice from groups 2 to 5 were injected intraperitoneally with CYP (dissolved in 0.9% NaCl) at a single dose of 150 mg/kg on day 1, injection volume 10 ml/kg. Mice in group 3 were subcutaneously injected with filgrastim (dissolved in 5% glucose), dose 50 μg/kg, once a day, from day 2 to day 4, the first dose 24 hours after CYP injection. Mice in groups 4 and 5 were given Ziptamin at doses of 25 ml/kg and 50 ml/kg from day 1 to day 4, divided into 2 doses/day, 4 hours apart between doses. Mice in the test groups were recorded for weight daily before administering distilled water, test sample, or medication. On day 4, one hour after the filgrastim injection or Ziptamin administration, mice were euthanized with CO2 gas, blood was collected from the heart to determine the leukocyte formula at Medlatec clinic; spleen and thymus were collected, rinsed with cold 0.9% NaCl, dried, weighed, and the relative organ mass was determined using the formula:
[formula] • Where: • Porgan: organ weight (g) • Pbody: body weight (g)
Results are presented as mean±SEM (standard error of mean). Differences between groups were analyzed using Kruskal-Wallis and Mann-Whitney tests with SPSS 26.0 software. A difference was considered statistically significant when the p-value <0.05.

[2] = fluoxetine 6.5 mg/kg once a day, 7 days, female mice, n = 6, 5 minutes recorded
[3] = filgrastim 50 μg/kg day 2 to day 4, CYP 150 mg/kg, blood day 4, n = 8
[4] = filgrastim 50 μg/kg day 2 to day 4, CYP 150 mg/kg, day 4, n = 8

CNCCC(Oc1ccc(C(F)(F)F)cc1)c1ccccc1 (stereo not drawn) [Fluoxetin, fluoxetine]
Time Immobility (mice; [2]): 53.17 ± 29.27 s | Time Struggling (mice; [2]): 15.33 ± 8.52 s | Time Swimming (mice; [2]): 231.50 ± 28.25 s | decrease in immobility time compared to the disease control group (mice; fluoxetine 6.5 mg/kg, p<0.01): 68.66% | increase in swimming time compared to the disease control group (mice; fluoxetine 6.5 mg/kg, p<0.01): 90.27% | paddling time relative to the disease control group (mice; fluoxetine 6.5 mg/kg, p>0.05): 1.77 times

B1: filgrastim (protein, UniProt P09919 31-207, looked up)
Granulocyte …: TPLGPASSLPQSFLLKCLEQVRKIQGDGAALQEKLVSECATYKLCHPEELVLLGHSLGIPWAPLSSCPSQALQLAGCLSQLHSGLFLYQGLLQALEGISPELGPTLDTLQLDVADFATTIWQQMEELGMAPALQPTQGAMPAFASAFQRRAGGVLVASHLQSFLEVSYRVLRHLAQP
modifications: filgrastim
Body weight ([1]; Day 1, filgrastim 50 μg/kg group, n = 8): 19.34 ± 0.97 g | Body weight ([1]; Day 2, filgrastim 50 μg/kg once a day from day 2, n = 8): 18.19 ± 1.21 g | Body weight ([1]; Day 3, filgrastim 50 μg/kg once a day from day 2, n = 8): 17.64 ± 1.41 g | Body weight ([1]; Day 4, filgrastim 50 μg/kg once a day from day 2, n = 8): 17.08 ± 1.52 g | Ratio WBCC Lympho [1, 3]: 87.26 ± 4.57 % | Ratio WBCC Mono [1, 3]: 7.00 ± 1.91 % | Ratio WBCC Neutral [1, 3]: 5.74 ± 2.84 % | Volume WBC Lympho [1, 3]: 2.26 ± 0.60**^# 10^9/L | Volume WBC Mono [1, 3]: 0.15 ± 0.10**^# 10^9/L | Volume WBC Neutral [1, 3]: 0.25 ± 0.13** 10^9/L | Volume WBC Total WBC [1, 3]: 2.66 ± 0.73**^# 10^9/L | Relative weight of the spleen [1, 4]: 0.16 ± 0.05 % g/g | Relative weight of the thymus [1, 4]: 0.06 ± 0.03 % g/g | total white blood cell count, lymphocyte count, monocyte count, proportion of neutrophils and lymphocytes compared to the disease control group ([1]; filgrastim 50 μg/kg subcutaneously, p<0.05): increase | weight of the thymus compared to the disease control group ([1]; filgrastim 50 μg/kg, end of the experiment): remained unchanged
